Test results from article PMC8809517, “Cofactor-independent RNA editing by a synthetic S-type PPR protein”.
Residue numbers refer to the chain shown, from its start.

T1: GFP-9S library array, motif 4 ND N98G;D124S (synthetic construct, N98G;D124S)
T1 chain: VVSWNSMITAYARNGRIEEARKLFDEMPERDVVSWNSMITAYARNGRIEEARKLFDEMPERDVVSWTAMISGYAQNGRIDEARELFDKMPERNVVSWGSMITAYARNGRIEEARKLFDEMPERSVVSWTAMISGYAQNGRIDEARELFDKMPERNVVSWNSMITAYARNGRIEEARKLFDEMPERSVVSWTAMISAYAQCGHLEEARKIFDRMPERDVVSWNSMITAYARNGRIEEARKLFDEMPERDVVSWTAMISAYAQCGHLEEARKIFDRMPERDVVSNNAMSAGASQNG

T2: GFP-9S library array, motif 4 ND N98I;D124W (synthetic construct, N98I;D124W)
T2 chain: T1 chain with G98I, S124W

T3: GFP-9S library array, motif 4 ND N98Y;D124H (synthetic construct, N98Y;D124H)
T3 chain: T1 chain with G98Y, S124H

T4: GFP-9S library array, motif 4 ND D124M (synthetic construct, D124M)
T4 chain: T1 chain with G98N, S124M

T5: GFP-9S library array, motif 4 ND N98A;D124P (synthetic construct, N98A;D124P)
T5 chain: T1 chain with G98A, S124P

B1: IR-rpoA-A (ssRNA)
RNA: AUUAAACGUGA
B2: Cy5-rpoA-G (ssRNA)
RNA: AUUAGACGUGA
B3: Cy5-rpoA (ssRNA)
RNA: AUUACACGUGA
B4: IR-rpoA-U (ssRNA)
RNA: AUUAUACGUGA

Experiments:
Test in all cases: high-throughput RNA pulldown from lysate on Ni-NTA beads; HRP: 50 mM Tris pH 8, 150 mM NaCl, 1 mM beta-mercaptoethanol, 50 ug/ml BSA, 3 ug/ml yeast RNA, 0.5% heparin; ITC and FP: Tris pH 8, 200 mM KCl, 5% glycerol; MST: 50 mM Tris pH 8, 200 mM NaCl, 1 mM DTT, BSA, heparin, 0.05% Tween 20
Conditions in all cases: tags: N-terminal His-eGFP
[1] = target: T1, GFP-9S library array, motif 4 ND …
[2] = target: T2, GFP-9S library array, motif 4 ND …
[3] = target: T3, GFP-9S library array, motif 4 ND …
[4] = target: T4, GFP-9S library array, motif 4 ND D124M
[5] = target: T5, GFP-9S library array, motif 4 ND …

Row | Binder | Kd ([1]; label: 5' IRDye 800CW) | Kd ([2]; label: 5' IRDye 800CW) | Kd ([3]; label: 5' IRDye 800CW) | Kd ([4]; label: 5' IRDye 800CW) | Kd ([5]; label: 5' IRDye 800CW) | Kd ([1]; label: 5' Cy5) | Kd ([2]; label: 5' Cy5) | Kd ([3]; label: 5' Cy5) | Kd ([4]; label: 5' Cy5) | Kd ([5]; label: 5' Cy5)
1 | B1 | 564 nM | 252 nM | 111 nM | 78.1 nM | 218 nM |  |  |  |  | 
2 | B2 |  |  |  |  |  | 549 nM | 98.3 nM | 46 nM | 139 nM | 115 nM
3 | B3 |  |  |  |  |  | 629 nM | 74.5 nM | 5.06 nM | 71.1 nM | 138 nM
4 | B4 | 749 nM | 136 nM | 169 nM | 21.2 nM | 320 nM |  |  |  |  | 
